Assay: yeast display, Sf9 membrane polyspecificity reagent, FACS + sequencing; frameworks hold sequencing errors
In short: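 Nanobodies came from a synthetic yeast display library in Saccharomyces cerevisiae BJ5465, induced with galactose for 36–48 hours and stained for 1 hour at 4 °C with 10% biotinylated, detergent-solubilized Sf9 membrane reagent. Cells were enriched on streptavidin microbeads and then FACS-sorted, with low and high (top ~1%) gates set on anti-HA fluorescence for expression and streptavidin fluorescence for reagent binding. Each polyreactivity label reflects the gate a clone came from. Genes were amplified by colony PCR, sequenced by MiSeq 2 × 250 and filtered by CDR length.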

Sequence	polyreactivity (PSR sort gate)
QVQLVESGGGLVQAGGSLRLSCAASGSTFHPYAMGWYIQAPGKERELVAAITWRVGSTYYADSVKGRFTISRDNAKNTVYLQMNSLKPEDTAVFYCAVSYLSSLGRSRYDYWGQGTQVTVSS	low polyreactivity
QVQLVESGGGLVEAGGSLRISCAASGSIFGYYAMGWYRQAPGKERELVAAISYSGGSTNYADSVKGRFTISRDTAKNSVSLQMNSLKPEDTAGYAFATSRSRRYVEFYRYDYWGQGPQVTVSS	high polyreactivity
QVQLVESGGGLVQAGGSLRLSCAASGITFGLYSMGWYRQAPGKQRELVASISQSGGSTYYADSVKGRFTISRDNAKNTVYLQMNSLKPEDTAVYYCNARRRFWDFSTRGYDSWGQGTQVTVSS	high polyreactivity
QVQLVESGGGLVQAGGSLRLSCAASGRIFTHNAMGWYRQAPGKERELVAAITSGGRTTYADSVKGRFTISRDNAKNTVYFQMNSLKPEDTAVYYCNADTGLGSLDFDKRDYWGQGTQVTVSS	low polyreactivity
QDQLVESVGGLVQAGGSLRLIFAASGSILTFYAMGWYRQAPGKERELVAAITWRGCSTYYADSVKGRFTISRDNEKNTVYLQMNSLKPEDTAVYYCAAERYGPRYDYWGQGTQVTLSS	high polyreactivity
QVQIVESGGALVQAGGSLRLSCAASGITLRPYAMGWYRQAPGKERELVAAITSSGGSTYYADSVKGRFTISRDIAKNTVYLLMNSLIPEDTAVYYCAALRVYAGDYWGQGTQVTVSS	low polyreactivity
QVQLVESGGGLVQAGGSLRLSCAASGSIFARYAMGWYRQAPGTERELVAAISRNGGSTYYADSVKGRFTISRDNAKNTVYLQMNSLKPEDTAVYYCAASYYVLYTREYDYWGQGTQVTVSS	low polyreactivity
QVQLVESGGGIVQAGGSLRLSCAASGITFPNYAMGWYRQAPGKERELVAAISSSGGSTYYADSVKGRFTISRDNPKNTVYLQMNSLKPEDTAVYYCATAINVYPRLDYGYWGQGTQVTVSS	low polyreactivity
QVQLVESGGGLVQAGGSLRLSCAASGFTFHDYVMAWYRQAPGKERELVAAISRSGGSTYYADSVKGRFTISRDNAKHTVYLQMNSLIPEDTAVYYCAAREYTTGGWRYNYWGQGTQVTVSS	high polyreactivity
QVQLVESGGGLVQAGGSLRLSCAASGSTIRNYAMGWYRQAPGKERELVAAISSGGRTYYADSVKGRFTISRDNAKNTVYLQMNSLKPEDTAVYYCNTPYTVRGRYTYDYWGQGTQVTVSS	high polyreactivity
QVQLVESGGGFVQAGGSLRLSCAASGRIFPEYSRGWYRQAPGKERELVASINSDGSTNYADSVKGRFTISRDNAKNTVYLQMNSLKPEDTAVYYCATEGSGTGIFISKFDYWGQGTQVTVSS	low polyreactivity
QVQLVESGGGLVQAGGSLRLSCAASGRTFKAYAMGWYRQAPGKEREFVAAITKRGGSTYYADSVKGRFTISRDNAKNTVYLQMNSLKPEDTAVYYCAVGLGRYTHTSVPIPSYDYWGQGTQVTVSS	high polyreactivity
QVQLVESGGGLVQAGGSLRLSCAASGSTFDTNAMGWYRQAPGKERELVATITSIGGSTYADSVKGRFTISRDNAKNTVYLQMNSLKPEDNAVYYCATDYVEIDYYYDYWGQGTQVTVSS	low polyreactivity
QVQLVESGGGLVQAGGSLRLTCSASGSTFYYYAMGWYRQAPGKERELVAAITISGGSTYYADSVKGRFTISRDKAKNTVYLQLNSLKPEDTAVYYCNVDDRETRDDYWGQGTQVTVSS	low polyreactivity
QVQLVESGGGLVQAGGSLRLSCAASGRIIGFNAMGWYRQAPGKERELVASIRTTGGSTRYADSVKGRFTISRDNAKNTVYLQMNSLKPEDTAVYDCAARWGKTLWQYNYWGQGTQVTVSS	high polyreactivity
QVQHVESGGGLVQAGGSLRLSCAASGSTFRVNAMGWYRPAPGKERELVAGISKSGTSTYYADSVKGRFTISRDNAKNTVYLQMNSLKPEDTAVYYCIKGYYRHPDESDYWGQGTQVTVSS	high polyreactivity
QVQLVESGGGLVQAGGSLRLSCAASGRIFNGNAMGWYRQAPGNERELVAAISGSGGSTYYADSVKGRFTISRDNAKNTVYLQMNSLKPEDTAVYYCATKRVVHYNYWGQGTQVTVSS	high polyreactivity
QVQLVESGGGLVQEGGSLRLSCAASGSIYGWDAMGWYRQAPGQEREYVAAIDYSDGGRTYSADSVKGRFTISRDPAKNTVYLQMNSLKPADTAVYYCAAGYVYPHYFIDEYWGQGTQVTVSS	high polyreactivity
QVQLVESGGGLVQAGGSLRLSCAASGSILYVYAMGWYRQAPGKERELVAAISNRDGSTYYADSVKGRFTISRDNAKNTVYLQMNSLKPEDTAVYYCNADGYGDYSFLKYRFEYDYWGQGTQVTVSS	low polyreactivity
QVQLVESGGGLVQAGGSHRLSCAASGGTFSNNAMGWYRQAPGKERELVAAISNSGGRTYYADSVKGRFTISRDNAKNTVYLQMNSLKPEDTAVYYCNARYRLMDYWGQGTQVTVSL	high polyreactivity
QVQLVESGGGLVQAGGSLRLSCAASGRIFGLYAMGWYRQAPGKERELVAAISVISTGPYYADSVKGRFTISRDNAMNTVYFQMNSLKPEDTAVYYCNADSVQYTPPESDYWGQGTQVTVSS	low polyreactivity
QVQLVESGGGLVQAGGSLRFSCAASGGNFGYYAMGWYRQAPGKERELVARISSSGGSTYYADSVKGRFTISRDNAKNTVYLQMNSLKPEDTAVYYCNTASNRYPGWRAEFDYWGQGTQVTVSS	low polyreactivity

Sequence	polyreactivity (PSR sort gate)
QVQLVESGGGLVQAGGSLRLSCAASGSIFYTNVMGWYRQAPGKERELVARIDSGGSTNYADSVKGRFTISRDNAKNTVFLQMNSLNPEDTAVYYCAADWYIYDYWGQGTQVTVSS	low polyreactivity
QVQLVESGGGIVQAGGSLRLSCAASGSTIGGYAMGWYRQAPGKERELVAAIRRSGDSTYYADSVKGRFTISRDNAKNTVYLQMNSLKPEDTAVYYCNTDRTHSYQYGGYDYWGQGTQVTVSS	low polyreactivity
QVQLVESGGGLVQAGGSLRLSCAASGSIFAYNAMGWYIQAPGKERELVATITVRGGSTYYADSVKGRFTISRDNAKNTFYLQMNSLKPEDTAVYFCAVRTYRYYRYNYWGQGTQVTVSS	high polyreactivity
QVQLVESGGGLVQAGGSLRLSCAASGFTFNYNAMGWYRQAPGKERELVAAISRSGGRTYYADSVKGRFTISRDNAKNTVYLQMNSLKPEDTAVYYCAADSRTNGYDYWGQGTQVTVSS	high polyreactivity
QVQLVESGGGLVQAGGSLRLSCAASGFTFWRYTMGWYRQAPGKERELVATIRRGTSTNYADSVKGRFTISRDNAKNTVYLQMNSLKPEDTAVYYCAADPWRYYVEYDYWGQGTQVTVSS	high polyreactivity
QVQLVESGGGLVQAGGSLRLSCAASGSIFSQNAMGWYRQAPGKERELVAAITSSGGNTYADSVKGRFTISRDNAKNTVYLQMNRLKPEDTAVYYCAAGHLVILNRSEYYYWGQGTQVTVSS	low polyreactivity
QVQLVESGGGVVQAGGSLRLSCAASGFIFFINDMGWDRQAPGKERELVAAISWSGGSTYYADSVKGRFTISRDNAKNTVYLQMNSLIPEDTAVYYCNTDVPTAQYDYWGQGTQVTVSS	low polyreactivity
QVQLVESGGGLVQAGGSLRLSCAASGSTFLTNVMGWYRQAPGKEREFVAAITANGGRTYYADSVKGRFTISRDNAKKTVYLKMNSQKPEDTAVYYAVETAWSYNSIYWFDYWGQGTQVTVSS	high polyreactivity
QVQLVESGGGLVQAGCSLRLSCAASGSIFPCNAMGWYRQAPGKERELVAAISRGCSTNYADSVKGRFTISRDNAKNTDYLQMNSLKPEDTSVFDCAVYYYSYHGGRGYDYWGQGTQVTVSS	high polyreactivity
QVQLVESGGGLVQPGRSLRLSCAASGFTFYIYAMGWYRQAPGKERELVAAISGRGSSTYYADSVKGRFTISRDNAKNSVYLQMNSQTPEDTAVYYCAAGKSKYGVRGDYWGQGTQVTVSS	high polyreactivity
QVQLVESGGGLVQAGGSLRLSCAASGFIFSYYAMVWYRQAPGTERELVAAISSSGSRTYYADSVKGRFTISRDNAKNTVYLQMNSLKPEDTAVYYCAARGAAKYGYWGQGTQVTVSS	high polyreactivity
QVQLVESGGGLDQAGGSLRLSCAASGSTFKWNAMGWYRQAPGKERELVAAISKGSVNTYYADSVKGRFTISRDNAKNTVYLQMNSLKPEDTAVYYCAADRRYPALDYWGQGTQVTVSS	high polyreactivity
QVQLVESGGGLVQAGGSLRLSCDASGSTFRGYAMGWYRQAPGKERDLVAAISRYGGSTYYADSVKGRFTISRDNAKTTVYIQMNSLKPEDTAGYYCNARSSKRSSRGYDYWGQGTQVTVSS	high polyreactivity
QVQLVESGGGLVQAGGSLRLSSAASGSIFIGYAMGWYRQAPGKARELVAAINDSGDRTYYADSVKGRFTISRDNAKNTVFLQMNSLKREDTAVYYCAADLGSLDPEYDYWGQGTQVTVSS	low polyreactivity
QVQLVESGGGLVQAGGSLRLSCAASGSIFNYYAMGWYRQAPGKERELVAGITTSGGSTYYADSVKGRFTISRDNAKNTVYLQMNSLKPEDTAVYYWAAYDYISSTYFLDDYWGQGTQVTVSS	low polyreactivity
QVQLVESGGGLVQAGGSLRLSCAASGFTFYYYAMGWYRQAPGKERELVASISSSGGSTYYADSVKGRFTISRDNAKNTVYLQMNSLKPEDTAGYYCARYRRRYDTYPGDYWGQGTQVTVSS	high polyreactivity
QVQLVESGGGLVQAGGSLRLSCAASGFTFLQYAMGWYRQAPGKERELVATISSGGSTYYADSVKGRFTISRDNAKNTVYLQMNSLTPEDTAVYYCNAEEHFHTYVLHFRPYYVRHDYWGKGTQVTVSS	low polyreactivity
QVQLVESGGGLVQAGGSLRLSCAASGLIFFSYAMGWYRQAPGKERELVAAISRRGGRTYYADSVKGRFTISRDNAKNTVYLQMNSLKPEDTAASYCATYVASHRGDRTYDHWGQCTQVTVSS	low polyreactivity
QVQLVESGGGLVQAGGSLRLSCAASGFTFYHYAMGWYRQAPGTERELVASITRSGASTYYADSVKGRFTSSRDNAKNTVYLQMNSLKPEDTAVYYCNKVRYTSSIWTYYYWGQGTQVTVSS	high polyreactivity
QVQLVESGGGLVQAGGSLRLSCAASGSTFYTNAMGWYRQAPGKERELVASISSGGRTYYADSVKGRFTISRDNAKNTVYLQMNSLKPEDTAVYYCAKRAVLARGDYWGQGTQVTVSS	low polyreactivity
QVKLVESGRGLVHAGGSLRLSSAASANTFPPNARGCYIPAPGKERELVSAISRSGVSTYYADSVKGRFTISRDNANNTVYLQMNSLKPEDTAVYYCAAPLIYTPLKYHYWGQGTQVTVSS	low polyreactivity

From the nanobody polyreactivity screen of Harvey et al. (2022)
